# Measured values from the supplement of paper PMC10567573.
# B1: CDKN1A (parent)
# chain: RRQTSMTDFYHSKRRLIFSKRKP
# Variants of: B1
# Experiment: protein stability index of a GFP-peptide fusion (GPS, HEK-293T) (PSI 1-6); higher = more stable
# Conditions: c terminus: native
# 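Note: lentivirally expressed fusions sorted by FACS into six bins by GFP to DsRed ratio, PSI derived from sequencing read proportions per bin multiplied by bin number.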
row,Variant,protein stability index
1,RRQTSMTDFYHSKARLIFSKRKP,2.14
2,RRQTSMTDFYHSKDRLIFSKRKP,2.81
3,RRQTSMTDFYHSKERLIFSKRKP,3.86
4,RRQTSMTDFYHSKSRLIFSKRKP,1.83
5,RRQTSMTDFYHSKHRLIFSKRKP,4.02
6,RRQTSMTDFYHSKWRLIFSKRKP,3.61
7,RRQTSMTDFYHSKTRLIFSKRKP,1.99
8,RRQTSMTDFYHSKNRLIFSKRKP,2.75
9,RRQTSMTDFYHSKCRLIFSKRKP,2.69
10,RRQTSMTDFYHSKQRLIFSKRKP,4.01
11,RRQTSMTDFYHSKMRLIFSKRKP,3.31
12,RRQTSMTDFYHSKLRLIFSKRKP,3.27
13,RRQTSMTDFYHSKIRLIFSKRKP,2.18
14,RRQTSMTDFYHSKKRLIFSKRKP,4.64
15,RRQTSMTDFYHSFRRLIFSKRKP,2.44
16,RRQTSMTDFYHSGRRLIFSKRKP,1.81
17,RRQTSMTDFYHSQRRLIFSKRKP,1.8
18,RRQTSMTDFYHSTRRLIFSKRKP,2.31
19,RRQTSMTDFYHSWRRLIFSKRKP,2.83
20,RRQTSMTDFYHSIRRLIFSKRKP,2.36
21,RRQTSMTDFYHSDRRLIFSKRKP,2.39
22,RRQTSMTDFYHSVRRLIFSKRKP,2.27
23,RRQTSMTDFYHSSRRLIFSKRKP,3.39
24,RRQTSMTDFYHSYRRLIFSKRKP,2.37
25,RRQTSMTDFYHSPRRLIFSKRKP,3.13

row,Variant,protein stability index
1,RRQTSMTDFYHSCRRLIFSKRKP,3.33
2,RRQTSMTDFYHSERRLIFSKRKP,3.4
3,RRQTSMTDFYHSNRRLIFSKRKP,2.55
4,RRQTSMTDFYHSHRRLIFSKRKP,1.75
5,RRQTSMTDFYHSARRLIFSKRKP,3
6,RRQTSMTDFYHSLRRLIFSKRKP,2.51
7,RRQTSMLDFYHSKRRLIFSKRKP,1.8
8,RRQTSMFDFYHSKRRLIFSKRKP,2.06
9,RRQTSMNDFYHSKRRLIFSKRKP,3.04
10,RRQTSMEDFYHSKRRLIFSKRKP,3.61
11,RRQTSMSDFYHSKRRLIFSKRKP,2.44
12,RRQTSMCDFYHSKRRLIFSKRKP,1.94
13,RRQTSMHDFYHSKRRLIFSKRKP,2.4
14,RRQTSMRDFYHSKRRLIFSKRKP,1.87
15,RRQTSMWDFYHSKRRLIFSKRKP,1.87
16,RRQTSMKDFYHSKRRLIFSKRKP,2.19
17,RRQTSMYDFYHSKRRLIFSKRKP,1.79
18,RRQTSMQDFYHSKRRLIFSKRKP,2.1
19,RRQTSMTDFYHAKRRLIFSKRKP,2.99
20,RRQTSMTDFYHNKRRLIFSKRKP,3.42
21,RRQTSMTDFYHEKRRLIFSKRKP,2.92
22,RRQTSMTDFYHMKRRLIFSKRKP,2.75
23,RRQTSMTDFYHCKRRLIFSKRKP,2.98
24,RRQTSMTDFYHYKRRLIFSKRKP,2.15
25,RRQTSMTDFYHFKRRLIFSKRKP,1.59

row,Variant,protein stability index
1,RRQTSMTDFYHPKRRLIFSKRKP,2.31
2,RRQTSMTDFYHIKRRLIFSKRKP,3.96
3,RRQTSMTDFYHVKRRLIFSKRKP,2.01
4,RRQTSMTDFYHGKRRLIFSKRKP,2.07
5,RRQTSMTDFYHWKRRLIFSKRKP,2.39
6,RRQSSMTDFYHSKRRLIFSKRKP,2.62
7,RRQVSMTDFYHSKRRLIFSKRKP,3.23
8,RRQYSMTDFYHSKRRLIFSKRKP,2.22
9,RRQWSMTDFYHSKRRLIFSKRKP,4.11
10,RRQLSMTDFYHSKRRLIFSKRKP,2.1
11,RRQASMTDFYHSKRRLIFSKRKP,2.23
12,RRQESMTDFYHSKRRLIFSKRKP,3.64
13,RRQFSMTDFYHSKRRLIFSKRKP,2.21
14,RRQKSMTDFYHSKRRLIFSKRKP,2.26
15,RRQPSMTDFYHSKRRLIFSKRKP,2.86
16,RRQCSMTDFYHSKRRLIFSKRKP,2.33
17,RRQRSMTDFYHSKRRLIFSKRKP,1.8
18,RRQTSMTDFNHSKRRLIFSKRKP,1.72
19,RRQTSMTDFPHSKRRLIFSKRKP,2.22
20,RRQTSMTDFQHSKRRLIFSKRKP,2.75
21,RRQTSMTDFVHSKRRLIFSKRKP,2.77
22,RRQTSMTDFAHSKRRLIFSKRKP,3.44
23,RRQTSMTDFWHSKRRLIFSKRKP,2.66
24,RRQTSMTDFMHSKRRLIFSKRKP,3.11
25,RRQTSMTDFRHSKRRLIFSKRKP,3.01

row,Variant,protein stability index
1,RRQTSMTDFKHSKRRLIFSKRKP,1.57
2,RRQTSMTDFEHSKRRLIFSKRKP,2.83
3,RRQTSMTDFIHSKRRLIFSKRKP,2.79
4,RRQTSMTDFTHSKRRLIFSKRKP,3.41
5,RRQTSMTDFCHSKRRLIFSKRKP,1.4
6,RRQTSMTDFYHSKRCLIFSKRKP,3.8
7,RRQTSMTDFYHSKRQLIFSKRKP,2.41
8,RRQTSMTDFYHSKRALIFSKRKP,2.94
9,RRQTSMTDFYHSKRDLIFSKRKP,3.82
10,RRQTSMTDFYHSKRTLIFSKRKP,2.34
11,RRQTSMTDFYHSKRLLIFSKRKP,2.47
12,RRQTSMTDFYHSKRYLIFSKRKP,2.23
13,RRQTSMTDFYHSKRMLIFSKRKP,3.54
14,RRQTSMTDFYHSKRILIFSKRKP,3
15,RRQTSMTDFYHSKRPLIFSKRKP,2.52
16,RRQTLMTDFYHSKRRLIFSKRKP,2.69
17,RRQTCMTDFYHSKRRLIFSKRKP,1.67
18,RRQTPMTDFYHSKRRLIFSKRKP,1.9
19,RRQTAMTDFYHSKRRLIFSKRKP,3
20,RRQTNMTDFYHSKRRLIFSKRKP,1.73
21,RRQTQMTDFYHSKRRLIFSKRKP,2.55
22,RRQTRMTDFYHSKRRLIFSKRKP,2.53
23,RRQTFMTDFYHSKRRLIFSKRKP,1.93
24,RRQTEMTDFYHSKRRLIFSKRKP,2.5
25,RRQTDMTDFYHSKRRLIFSKRKP,2.95

row,Variant,protein stability index
1,RRQTVMTDFYHSKRRLIFSKRKP,2.27
2,RRQTTMTDFYHSKRRLIFSKRKP,2.38
3,RRQTKMTDFYHSKRRLIFSKRKP,2.87
4,RRQTMMTDFYHSKRRLIFSKRKP,2.73
5,RRQTYMTDFYHSKRRLIFSKRKP,2.19
6,RRQTHMTDFYHSKRRLIFSKRKP,3.12
7,RRQTGMTDFYHSKRRLIFSKRKP,3.9
8,RRQTSMTFFYHSKRRLIFSKRKP,3.24
9,RRQTSMTYFYHSKRRLIFSKRKP,1.55
10,RRQTSMTRFYHSKRRLIFSKRKP,1.14
11,RRQTSMTGFYHSKRRLIFSKRKP,2.29
12,RRQTSMTPFYHSKRRLIFSKRKP,2.14
13,RRQTSMTKFYHSKRRLIFSKRKP,3.12
14,RRQTSMTEFYHSKRRLIFSKRKP,3.76
15,RRQTSMTMFYHSKRRLIFSKRKP,2.65
16,RRQTSMTLFYHSKRRLIFSKRKP,2.32
17,RRQTSMTSFYHSKRRLIFSKRKP,2.95
18,RRQTSMTTFYHSKRRLIFSKRKP,3.06
19,RRQTSMTDFYHSKRRKIFSKRKP,2.21
20,RRQTSMTDFYHSKRRCIFSKRKP,2.32
21,RRQTSMTDFYHSKRRFIFSKRKP,3.4
22,RRQTSMTDFYHSKRRGIFSKRKP,3.3
23,RRQTSMTDFYHSKRRHIFSKRKP,2.87
24,RRQTSMTDFYHSKRRMIFSKRKP,1.54
25,RRQTSMTDFYNSKRRLIFSKRKP,1.47

row,Variant,protein stability index
1,RRQTSMTDFYFSKRRLIFSKRKP,2.93
2,RRQTSMTDFYPSKRRLIFSKRKP,2.49
3,RRQTSMTDFYASKRRLIFSKRKP,2.49
4,RRQTSMTDFYDSKRRLIFSKRKP,1.65
5,RRQTSMTDFYESKRRLIFSKRKP,2.37
6,RRQTSMTDFYKSKRRLIFSKRKP,3.46
7,RRQTSMTDFYYSKRRLIFSKRKP,1.66
8,RRQTSMTDFYVSKRRLIFSKRKP,1.43
9,RRQTSMTDFYQSKRRLIFSKRKP,2.55
10,RRQTSMTDFYLSKRRLIFSKRKP,3.32
11,RRQTSMTDFYISKRRLIFSKRKP,2.03
12,RRQTSMTDFYSSKRRLIFSKRKP,2.69
13,RRQTSMTDFYGSKRRLIFSKRKP,2.88
14,RIQTSMTDFYHSKRRLIFSKRKP,2.89
15,RDQTSMTDFYHSKRRLIFSKRKP,2.5
16,RMQTSMTDFYHSKRRLIFSKRKP,4.02
17,RNQTSMTDFYHSKRRLIFSKRKP,3.28
18,RPQTSMTDFYHSKRRLIFSKRKP,3.33
19,RGQTSMTDFYHSKRRLIFSKRKP,3.55
20,RAQTSMTDFYHSKRRLIFSKRKP,2.1
21,RWQTSMTDFYHSKRRLIFSKRKP,2.28
22,RKQTSMTDFYHSKRRLIFSKRKP,1.75
23,RLQTSMTDFYHSKRRLIFSKRKP,1.97
24,RVQTSMTDFYHSKRRLIFSKRKP,2.74
25,RSQTSMTDFYHSKRRLIFSKRKP,1.11

row,Variant,protein stability index
1,RRGTSMTDFYHSKRRLIFSKRKP,3.86
2,RRLTSMTDFYHSKRRLIFSKRKP,4.67
3,RRSTSMTDFYHSKRRLIFSKRKP,2.27
4,RRRTSMTDFYHSKRRLIFSKRKP,2.49
5,RRFTSMTDFYHSKRRLIFSKRKP,2.24
6,RRTTSMTDFYHSKRRLIFSKRKP,2.71
7,RRKTSMTDFYHSKRRLIFSKRKP,2.72
8,RRQTSMTDYYHSKRRLIFSKRKP,3.43
9,RRQTSMTDHYHSKRRLIFSKRKP,4.22
10,RRQTSMTDIYHSKRRLIFSKRKP,3.36
11,RRQTSMTDRYHSKRRLIFSKRKP,2.54
12,RRQTSMTDTYHSKRRLIFSKRKP,2.25
13,RRQTSMTDGYHSKRRLIFSKRKP,2.02
14,RRQTSMTDKYHSKRRLIFSKRKP,2.4
15,RRQTSMTDVYHSKRRLIFSKRKP,2.43
16,RRQTSMTDDYHSKRRLIFSKRKP,2.72
17,RRQTSMTDLYHSKRRLIFSKRKP,2.24
18,RRQTSMTDCYHSKRRLIFSKRKP,2.71
19,TRQTSMTDFYHSKRRLIFSKRKP,3.87
20,MRQTSMTDFYHSKRRLIFSKRKP,2.04
21,YRQTSMTDFYHSKRRLIFSKRKP,2.74
22,GRQTSMTDFYHSKRRLIFSKRKP,1.02
23,KRQTSMTDFYHSKRRLIFSKRKP,2.57
24,IRQTSMTDFYHSKRRLIFSKRKP,1.98
25,LRQTSMTDFYHSKRRLIFSKRKP,1.96

row,Variant,protein stability index
1,NRQTSMTDFYHSKRRLIFSKRKP,2.77
2,QRQTSMTDFYHSKRRLIFSKRKP,1.72
3,FRQTSMTDFYHSKRRLIFSKRKP,3.44
4,VRQTSMTDFYHSKRRLIFSKRKP,2.34
5,SRQTSMTDFYHSKRRLIFSKRKP,2.99
6,ARQTSMTDFYHSKRRLIFSKRKP,1.71
7,ERQTSMTDFYHSKRRLIFSKRKP,3
8,WRQTSMTDFYHSKRRLIFSKRKP,2.69
9,RRQTSFTDFYHSKRRLIFSKRKP,2.03
10,RRQTSITDFYHSKRRLIFSKRKP,2.14
11,RRQTSHTDFYHSKRRLIFSKRKP,2.36
12,RRQTSPTDFYHSKRRLIFSKRKP,1.34
13,RRQTSDTDFYHSKRRLIFSKRKP,1.96
14,RRQTSNTDFYHSKRRLIFSKRKP,3.37
15,RRQTSWTDFYHSKRRLIFSKRKP,2.56
16,RRQTSATDFYHSKRRLIFSKRKP,2.57
17,RRQTSYTDFYHSKRRLIFSKRKP,1.92
18,RRQTSLTDFYHSKRRLIFSKRKP,2.93
19,RRQTSKTDFYHSKRRLIFSKRKP,3.44
